The record followed here is doi:10.1101/2024.08.25.607996 (bioRxiv, 2024).

This data set deals with the molecule itself. The data set is described as follows: cryo-EM structure.

B1: feline APN ectodomain without the Fc fusion (dimer) (domain or fragment)
chain: DQSKPWNVYRLPKTLIPDSYNVTLRPYLTPNNKGLYVFTGTNIVRFTCKESTNIVIIHSKRLNYTSHQGHMVALSGVGGFHPQPVIVRTELVELTEYLVVHLQEPLVAGRQYEMNSEFQGELADDLAGFYRSEYMENGVKKVLATTHMQATEARKSFPCFDEPAMKATFNITIIHPNNLVALSNMLPRGPSVPFGEDPTWKVTEFETTPIMSTYLLAYIVSEFSYVETRAPSGVLIRIWARPSAINQGHGDYALKVTGPILDFFSQHYDTPYPLNKSDQIALPDFNAGAMENWGLVTYRESALLYDRQSSSSGNQERVVTVIAHELAHQWFGNLVTLEWWNDLWLNEGFASYVEYLGADFAEPTWNLKDLMVLNDVYRVMAVDALASSHPLSTPASEINTPAQISEVFDSISYSKGASVLRMLSNFLTEDLFKMGIASYLHTYKYGNTIYLNLWEHLQQVVDKQPTIKLPDTVSAIMDRWILQMGFPVITVDTQTGTISQQHFLLDPQSVVTRPSQFNYLWIVPISSVRSGSPQAHYWLPGVEKAQNDLFKTTANDWVLLNLNVTGYYLVNYDNENWKKIQTQLQTDLSVIPVINRAQVIHDAFNLASAQKVPVTLALNNTLFLIQETEYMPWQAALSSLSYFKLMFDRSEVYGPMKRYLKKQVTPLFNHFERVTKNWTDHPQTLMDQYSEINAVSTACSYGVPECEKLAATLFAQWKKNPQNNPIHPNLRSTVYCNAIAQGGEEEWNFVWEQFLKAELVNEADKLRGALACSNQVWILNRFLSYTLDPNLIRKQDVTSTLSSISSNVVGQTLVWDFVQSNWKKLFQDYGTGSFSFSNLIQAVTRRFSTEFELQQLEQFKKNNMDTGFGSATRALEQALEKTKANLKWVKENKDVVLRWFTENS
Turning to B1, the “stoichiometry N” value stood at 2.
